From patent US20260151499A1 (TSINGHUA UNIVERSITY, published 2026)

T1: CD73 protein (UniProt P21589 27-549)
T1 sequence (looked up): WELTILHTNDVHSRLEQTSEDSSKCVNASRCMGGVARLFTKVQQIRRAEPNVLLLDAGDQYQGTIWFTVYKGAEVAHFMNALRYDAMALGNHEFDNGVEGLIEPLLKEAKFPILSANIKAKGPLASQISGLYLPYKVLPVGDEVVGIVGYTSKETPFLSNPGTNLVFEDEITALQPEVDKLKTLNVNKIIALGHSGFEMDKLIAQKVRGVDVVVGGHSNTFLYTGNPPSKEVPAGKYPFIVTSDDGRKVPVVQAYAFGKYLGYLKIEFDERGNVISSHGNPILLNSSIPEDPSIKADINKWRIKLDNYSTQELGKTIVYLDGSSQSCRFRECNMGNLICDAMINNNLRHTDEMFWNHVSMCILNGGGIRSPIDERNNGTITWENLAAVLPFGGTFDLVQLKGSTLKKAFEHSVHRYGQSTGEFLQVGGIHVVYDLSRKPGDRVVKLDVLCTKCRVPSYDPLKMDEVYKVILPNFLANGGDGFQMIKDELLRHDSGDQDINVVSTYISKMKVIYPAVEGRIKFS


Tests used:
CD73 protein [1] = target: T1, CD73 protein; assay: cell-based or functional assay
CD73 protein [2] = target: T1, CD73 protein; assay: Octet BLI; Ab-BN3 on protein A sensors, CD73 in solution
CD73 protein [3] = target: T1, CD73 protein; assay: cell-based or functional assay; remark: listed apart in the source
NaV1.2 = NaV1.2 (UniProt Q99250 1-2005); assay: cell-based or functional assay
Chain of NaV1.2 (Q99250 whole entry): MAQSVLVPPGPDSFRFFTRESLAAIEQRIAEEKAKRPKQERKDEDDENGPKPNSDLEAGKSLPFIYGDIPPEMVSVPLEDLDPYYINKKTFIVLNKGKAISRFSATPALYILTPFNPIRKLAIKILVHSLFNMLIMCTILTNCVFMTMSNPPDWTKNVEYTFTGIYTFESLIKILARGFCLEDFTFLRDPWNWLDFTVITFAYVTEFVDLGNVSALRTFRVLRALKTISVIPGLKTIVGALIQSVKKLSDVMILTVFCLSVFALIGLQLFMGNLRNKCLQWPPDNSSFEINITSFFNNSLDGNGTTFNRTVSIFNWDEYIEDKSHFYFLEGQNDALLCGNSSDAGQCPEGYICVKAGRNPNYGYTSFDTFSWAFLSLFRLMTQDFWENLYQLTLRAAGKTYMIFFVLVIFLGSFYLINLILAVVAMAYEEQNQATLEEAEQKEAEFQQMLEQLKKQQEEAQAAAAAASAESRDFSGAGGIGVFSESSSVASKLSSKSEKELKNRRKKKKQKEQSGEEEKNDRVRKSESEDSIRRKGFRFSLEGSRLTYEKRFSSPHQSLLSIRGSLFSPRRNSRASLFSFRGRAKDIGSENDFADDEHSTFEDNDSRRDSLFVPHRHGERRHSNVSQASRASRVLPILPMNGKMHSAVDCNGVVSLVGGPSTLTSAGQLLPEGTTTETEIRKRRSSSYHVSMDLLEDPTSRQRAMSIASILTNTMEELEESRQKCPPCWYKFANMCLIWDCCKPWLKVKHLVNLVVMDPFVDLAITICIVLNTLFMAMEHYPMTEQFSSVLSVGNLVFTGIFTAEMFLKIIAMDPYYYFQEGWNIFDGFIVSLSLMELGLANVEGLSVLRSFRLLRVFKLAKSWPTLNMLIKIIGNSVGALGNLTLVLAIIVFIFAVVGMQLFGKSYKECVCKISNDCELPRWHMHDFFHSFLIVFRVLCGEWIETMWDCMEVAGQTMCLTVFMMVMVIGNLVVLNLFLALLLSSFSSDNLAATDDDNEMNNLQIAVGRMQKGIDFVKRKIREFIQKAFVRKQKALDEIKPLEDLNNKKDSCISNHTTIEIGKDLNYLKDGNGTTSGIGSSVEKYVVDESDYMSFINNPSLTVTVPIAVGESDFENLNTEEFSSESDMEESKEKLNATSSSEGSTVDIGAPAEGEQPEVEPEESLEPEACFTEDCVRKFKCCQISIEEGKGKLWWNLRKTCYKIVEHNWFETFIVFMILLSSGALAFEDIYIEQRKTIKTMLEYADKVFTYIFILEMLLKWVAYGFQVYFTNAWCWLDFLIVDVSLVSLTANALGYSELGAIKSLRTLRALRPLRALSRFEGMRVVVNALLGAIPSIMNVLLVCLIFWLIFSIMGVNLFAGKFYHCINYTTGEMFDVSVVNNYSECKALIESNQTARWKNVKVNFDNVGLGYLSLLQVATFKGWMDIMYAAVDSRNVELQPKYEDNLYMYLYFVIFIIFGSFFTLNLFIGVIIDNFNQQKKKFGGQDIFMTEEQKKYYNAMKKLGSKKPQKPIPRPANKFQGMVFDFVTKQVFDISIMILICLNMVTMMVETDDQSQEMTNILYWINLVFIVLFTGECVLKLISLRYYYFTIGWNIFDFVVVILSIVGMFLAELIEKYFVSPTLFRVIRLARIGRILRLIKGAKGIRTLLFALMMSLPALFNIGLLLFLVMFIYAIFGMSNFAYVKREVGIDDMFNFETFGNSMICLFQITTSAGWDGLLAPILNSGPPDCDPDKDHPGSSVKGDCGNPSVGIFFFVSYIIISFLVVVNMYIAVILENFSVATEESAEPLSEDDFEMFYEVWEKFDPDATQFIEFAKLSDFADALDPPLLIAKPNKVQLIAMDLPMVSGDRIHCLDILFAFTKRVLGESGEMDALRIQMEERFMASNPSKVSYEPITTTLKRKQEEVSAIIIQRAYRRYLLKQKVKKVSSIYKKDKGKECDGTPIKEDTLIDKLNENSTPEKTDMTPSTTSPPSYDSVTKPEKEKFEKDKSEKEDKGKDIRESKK

NaV1.7 = NaV1.7 (UniProt Q15858 1-1988); assay: cell-based or functional assay
Chain of NaV1.7 (Q15858 whole entry): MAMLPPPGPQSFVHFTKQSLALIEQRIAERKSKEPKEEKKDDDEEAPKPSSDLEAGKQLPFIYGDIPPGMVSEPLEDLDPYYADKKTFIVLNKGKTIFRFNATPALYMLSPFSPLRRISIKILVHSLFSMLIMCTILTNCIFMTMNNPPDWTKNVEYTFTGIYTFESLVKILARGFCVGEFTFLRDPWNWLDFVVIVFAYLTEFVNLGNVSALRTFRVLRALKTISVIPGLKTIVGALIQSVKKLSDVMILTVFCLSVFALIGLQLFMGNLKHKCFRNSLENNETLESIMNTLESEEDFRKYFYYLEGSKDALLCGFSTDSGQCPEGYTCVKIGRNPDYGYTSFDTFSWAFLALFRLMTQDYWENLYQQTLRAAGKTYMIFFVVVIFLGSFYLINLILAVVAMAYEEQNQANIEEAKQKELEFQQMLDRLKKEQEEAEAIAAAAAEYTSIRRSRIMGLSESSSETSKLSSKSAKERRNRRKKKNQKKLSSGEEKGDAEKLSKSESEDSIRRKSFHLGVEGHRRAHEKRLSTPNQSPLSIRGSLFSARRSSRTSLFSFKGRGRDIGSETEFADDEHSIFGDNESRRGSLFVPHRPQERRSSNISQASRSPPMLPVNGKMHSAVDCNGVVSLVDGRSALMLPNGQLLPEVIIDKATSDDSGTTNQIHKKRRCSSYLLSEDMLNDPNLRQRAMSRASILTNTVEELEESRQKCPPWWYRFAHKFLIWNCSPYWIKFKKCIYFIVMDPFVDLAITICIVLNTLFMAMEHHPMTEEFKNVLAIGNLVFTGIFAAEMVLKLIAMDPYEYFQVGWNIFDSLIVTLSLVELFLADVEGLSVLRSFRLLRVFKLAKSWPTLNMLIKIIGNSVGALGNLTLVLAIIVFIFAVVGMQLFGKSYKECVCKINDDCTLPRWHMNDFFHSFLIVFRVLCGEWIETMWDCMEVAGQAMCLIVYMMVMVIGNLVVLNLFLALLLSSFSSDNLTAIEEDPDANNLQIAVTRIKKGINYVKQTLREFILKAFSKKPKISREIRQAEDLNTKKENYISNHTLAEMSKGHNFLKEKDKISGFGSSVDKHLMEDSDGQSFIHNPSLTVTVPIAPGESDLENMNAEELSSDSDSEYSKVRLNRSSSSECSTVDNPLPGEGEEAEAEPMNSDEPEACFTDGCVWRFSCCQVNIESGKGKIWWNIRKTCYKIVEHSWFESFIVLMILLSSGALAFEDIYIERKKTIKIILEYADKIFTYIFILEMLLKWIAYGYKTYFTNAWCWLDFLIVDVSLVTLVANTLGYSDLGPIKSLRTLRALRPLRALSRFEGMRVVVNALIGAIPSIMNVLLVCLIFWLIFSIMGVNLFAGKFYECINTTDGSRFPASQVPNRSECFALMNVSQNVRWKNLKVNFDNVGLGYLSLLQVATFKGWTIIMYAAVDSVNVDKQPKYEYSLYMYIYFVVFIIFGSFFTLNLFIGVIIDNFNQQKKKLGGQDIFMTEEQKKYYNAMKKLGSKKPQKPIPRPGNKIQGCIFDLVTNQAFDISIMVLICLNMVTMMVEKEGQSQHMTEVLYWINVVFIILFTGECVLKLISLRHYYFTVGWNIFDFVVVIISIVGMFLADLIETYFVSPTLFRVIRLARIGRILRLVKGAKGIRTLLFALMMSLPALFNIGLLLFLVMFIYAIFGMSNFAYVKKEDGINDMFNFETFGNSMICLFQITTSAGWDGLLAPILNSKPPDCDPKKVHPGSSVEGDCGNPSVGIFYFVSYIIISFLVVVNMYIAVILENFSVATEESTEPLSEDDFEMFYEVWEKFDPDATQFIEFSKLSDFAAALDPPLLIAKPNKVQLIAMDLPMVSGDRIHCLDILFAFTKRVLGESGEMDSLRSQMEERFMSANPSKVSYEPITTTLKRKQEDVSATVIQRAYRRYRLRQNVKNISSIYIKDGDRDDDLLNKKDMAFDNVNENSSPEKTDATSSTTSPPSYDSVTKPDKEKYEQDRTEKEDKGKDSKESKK

Binder | IC90 of inhibition of CD73 (malachite green phosphate assay) (CD73 protein [1]) | Kd (CD73 protein [2]) | koff (CD73 protein [2]) | kon (CD73 protein [2]) | IC50 of inhibition of CD73, against that of 10A7-BN3 (CD73 protein [3]) | IC50 on HEK293-NaV1.2 cells (NaV1.2) | IC50 on HEK293-NaV1.7 cells, by curve fitting (NaV1.7)
10A7-BN3 (antibody, V domains shown, position marked * in QQ*YTTPPT (light chain residue 91): unnatural amino acid (UAA) with azide, conjugated to BN3 (PSB12379-PEG3-DBCO), also called 10A7 Ab-BN3) VH: EVQLVESGGGLVQPGGSLRLSCAASGFAFSSYSMSWVRQAPGKGLEWIGSIYYSGSTYYNPSLKSRVTISADTSKNTAYLQMNSLRAEDTAVYYCARNSGFETLDYWGQGTLVTVSS VL: DIQMTQSPSSLSASVGDRVTITCRASQGISRWLAWYQQKPGKAPNLLIYGASTLQSGVPPRFSGSRSGTDFTLTISSLQPEDFATYYCQQXYTTPPTFGQGTKLEI | 2.92 nM | 0.888 nM | 0.000191 s⁻¹ | 215000 M⁻¹ s⁻¹ |  |  | 
10A7-Fab-BN3 (Fab, V domains shown, position marked * in QQ*YTTPPT (light chain residue 91): unnatural amino acid (UAA) with azide, conjugated to BN3 (PSB12379-PEG3-DBCO)) VH: EVQLVESGGGLVQPGGSLRLSCAASGFAFSSYSMSWVRQAPGKGLEWIGSIYYSGSTYYNPSLKSRVTISADTSKNTAYLQMNSLRAEDTAVYYCARNSGFETLDYWGQGTLVTVSS VL: DIQMTQSPSSLSASVGDRVTITCRASQGISRWLAWYQQKPGKAPNLLIYGASTLQSGVPPRFSGSRSGTDFTLTISSLQPEDFATYYCQQXYTTPPTFGQGTKLEI |  |  |  |  | ~0.2 fold of the IC50 of 10A7-BN3 |  | 
10D8-BN3 (antibody, V domains shown, position marked * in QQ*YTTPPT (light chain residue 91): unnatural amino acid (UAA) with azide, conjugated to BN3 (PSB12379-PEG3-DBCO), also called 10D8 Ab-BN3) VH: EVQLVESGGGLVQPGGSLRLSCAASGFTFSTYAIHWVRQAPGKGLEWVSSISGSGGGGGTYYADSVKGRFTISADTSKNTAYLQMNSLRAEDTAVYYCARDRGFLQFDYWGQGTLVTVSS VL: DIQMTQSPSSLSASVGDRVTITCRASQSISSWLAWYQQKPGKAPKLLIYDVSNVQTGVPSRFSGSRSGTDFTLTISSLQPEDFATYYCQQXYTTPPTFGQGTKLEI | > 100 nM | 1.35 nM | 0.000275 s⁻¹ | 204000 M⁻¹ s⁻¹ |  |  | 
14H4-PEG3-ASF (antibody, V domains shown, position marked * in QQ*YTTPPT (light chain residue 91): unnatural amino acid (UAA) with azide, conjugated to ASF-PEG3-DBCO) VH: EVQLVESGGGLVQPGGSLRLSCAASGFSFSKFWMHWVRQAPGKGLEWVAFMAHDESNKNYADSVKGRFTISADTSKNTAYLQMNSLRAEDTAVYYCARDKVCNTFDIWGQGTLVTVSS VL: DIQMTQSPSSLSASVGDRVTITCRASQSISSDLNWYQQKPGKAPKLLIYRATFLESGVPSRFSGSRSGTDFTLTISSLQPEDFATYYCQQXYTTPPTFGQGTKLEI |  |  |  |  |  | 2.73 nM | > 500 nM
14E6-PEG3-ASF (antibody, V domains shown, position marked * in QQ*YTTPPT (light chain residue 91): unnatural amino acid (UAA) with azide, conjugated to ASF-PEG3-DBCO) VH: EVQLVESGGGLVQPGGSLRLSCAASGFTFSNFAMHWVRQAPGKGLEYVSAISGGNGGGTYYADSAKGRFTISADTSKNTAYLQMNSLRAEDTAVYYCAREGNYCLDYWGQGTLVTVSS VL: DIQMTQSPSSLSASVGDRVTITCRASQPISDWLAWYQQKPGKAPKSLIYDAYNLQSGVPPRFSGSRSGTDFTLTISSLQPEDFATYYCQQXYTTPPTFGQGTKLEI |  |  |  |  |  | 5.02 nM | 
ABN3-2B-BN3 (antibody, V domains shown, not fully specified; position marked * in QQ*YTTPPT (light chain residue 91): unnatural amino acid (UAA) with azide, conjugated to BN3 (PSB12379-PEG3-DBCO), also called ABN3-2B Ab-BN3; ABN-2B) VH: EVQLVESGGGLVQPGGSLRLSCAASGFTFSSYWMHWVRQAPGKGLEWVSAVSGSGDSTYYADSVKGRFTISADTSKNTAYLQMNSLRAEDTAVYYCAREGDWGLDYWGQGTLVTVSS VL: DIQMTQSPSSLSASVGDRVTITCRASQGINNYLAWYQQKPGKAPKLLIYDASNLETGVPSRFSGSRSGTDFTLTISSLQPEDFATYYCQQXYTTPPTFGQGTKLEI |  | 3.16 nM | 0.000582 s⁻¹ | 185000 M⁻¹ s⁻¹ |  |  | 
ABN3-2G-BN3 (antibody, V domains shown, not fully specified; position marked * in QQ*YTTPPT (light chain residue 91): unnatural amino acid (UAA) with azide, conjugated to BN3 (PSB12379-PEG3-DBCO), also called ABN3-2G Ab-BN3) VH: EVQLVESGGGLVQPGGSLRLSCAASGITFGSYTMSWVRQAPGKGLEWIGTVHYTGKTFYSPSLKSRVTISADTSKNTAYLQMNSLRAEDTAVYYCARGRDFGEPPYVRAFDIWGQGTLVTVSS VL: DIQMTQSPSSLSASVGDRVTITCQASHDISKYLNWYQQKPGKAPKLLIYDASNLETGVPSRFSGSRSGTDFTLTISSLQPEDFATYYCQQXYTTPPTFGQGTKLEI | 25.9 nM | 0.887 nM | 0.000271 s⁻¹ | 305000 M⁻¹ s⁻¹ |  |  | 
